Where a chain is given by its changes, count along the chain named. Numbers in names are those of the source.
B1: CE115HA000 Y58L one-arm antibody (antibody, human IgG1, kappa, L234A L235A, N297A, name in Kabat numbering)
heavy: QVQLVESGGGVVQPGRSLRLSCAASGFTFSNAWMHWVRQAPGKGLEWVAQIKAKSNNYATLYAESVKGRFTISRDDSKNSLYLQMNSLKTEDTAVYYCRYVHYGAYYGVDAWGQGTTVTVSSASTKGPSVFPLAPSSKSTSGGTAALGCLVKDYFPEPVTVSWNSGALTSGVHTFPAVLQSSGLYSLSSVVTVPSSSLGTQTYICNVNHKPSNTKVDKKVEPKSCDKTHTCPPCPAPEAAGGPSVFLFPPKPKDTLMISRTPEVTCVVVDVSHEDPEVKFNWYVDGVEVHNAKTKPREEQYASTYRVVSVLTVLHQDWLNGKEYKCKVSNKALPAPIEKTISKAKGQPREPQVYTLPPSRCELTKNQVSLSCAVKGFYPSDIAVEWESNGQPENNYKTTPPVLDSDGSFFLVSKLTVDKSRWQQGNVFSCSVMHEALHNHYTQKSLSLSPDYKDDDDK
chain: EPKSSDKTHTCPPCPAPELLGGPSVFLFPPKPKDTLMISRTPEVTCVVVDVSHEDPEVKFNWYVDGVEVHNAKTKPREEQYNSTYRVVSVLTVLHQDWLNGKEYKCKVSNKALPAPIEKTISKAKGQPREPQVCTLPPSRDELTKNQVSLWCLVKGFYPSDIAVEWESNGQPENNYKTTPPVLDSDGSFFLYSKLTVDKSRWQQGNVFSCSVMHEALHNRYTQKSLSLSP
light: DIVMTQSPLSLPVTPGEPASISCRSSQSLVHSNRNTYLHWYQQKPGQAPRLLIYKVSNRFSGVPDRFSGSGSGTDFTLKISRVEAEDVGVYYCGQGTQVPYTFGQGTKLEIKRTVAAPSVFIFPPSDEQLKSGTASVVCLLNNFYPREAKVQWKVDNALQSGNSQESVTEQDSKDSTYSLSSTLTLSKADYEKHKVYACEVTHQGLSSPVTKSFNRGEC
notes: one-arm antibody (one Fab)
B2: CE115HA000 Y58N one-arm antibody (antibody, human IgG1, kappa, L234A L235A, N297A, name in Kabat numbering)
heavy: B1 heavy with L61N
chain: B1 chain
light: B1 light
notes: one-arm antibody (one Fab)
B3: CE115HA000 Y58Q one-arm antibody (antibody, human IgG1, kappa, L234A L235A, N297A, name in Kabat numbering)
heavy: B1 heavy with L61Q
chain: B1 chain
light: B1 light
notes: one-arm antibody (one Fab)
B4: CE115HA000 Y58S one-arm antibody (antibody, human IgG1, kappa, L234A L235A, N297A, name in Kabat numbering)
heavy: B1 heavy with L61S
chain: B1 chain
light: B1 light
notes: one-arm antibody (one Fab)
B5: CE115HA000 Y59S one-arm antibody (antibody, human IgG1, kappa, L234A L235A, N297A, name in Kabat numbering)
heavy: B1 heavy with L61Y, Y62S
chain: B1 chain
light: B1 light
notes: one-arm antibody (one Fab)
B6: CE115HA000 Y97A one-arm antibody (antibody, human IgG1, kappa, L234A L235A, N297A, name in Kabat numbering)
heavy: B1 heavy with L61Y, Y103A
chain: B1 chain
light: B1 light
notes: one-arm antibody (one Fab)
B7: CE115HA000 Y97D one-arm antibody (antibody, human IgG1, kappa, L234A L235A, N297A, name in Kabat numbering)
heavy: B1 heavy with L61Y, Y103D
chain: B1 chain
light: B1 light
notes: one-arm antibody (one Fab)
B8: CE115HA000 Y97G one-arm antibody (antibody, human IgG1, kappa, L234A L235A, N297A, name in Kabat numbering)
heavy: B1 heavy with L61Y, Y103G
chain: B1 chain
light: B1 light
notes: one-arm antibody (one Fab)
B9: CE115HA000 Y97P one-arm antibody (antibody, human IgG1, kappa, L234A L235A, N297A, name in Kabat numbering)
heavy: B1 heavy with L61Y, Y103P
chain: B1 chain
light: B1 light
notes: one-arm antibody (one Fab)
B10: CE115HA000 Y97R one-arm antibody (antibody, human IgG1, kappa, L234A L235A, N297A, name in Kabat numbering)
heavy: B1 heavy with L61Y, Y103R
chain: B1 chain
light: B1 light
notes: one-arm antibody (one Fab)
B11: CE115HA000 Y97S one-arm antibody (antibody, human IgG1, kappa, L234A L235A, N297A, name in Kabat numbering)
heavy: B1 heavy with L61Y, Y103S
chain: B1 chain
light: B1 light
notes: one-arm antibody (one Fab)
B12: CE115HA000 Y100A one-arm antibody (antibody, human IgG1, kappa, L234A L235A, N297A, name in Kabat numbering)
heavy: B1 heavy with L61Y, Y106A
chain: B1 chain
light: B1 light
notes: one-arm antibody (one Fab)
B13: CE115HA000 Y100D one-arm antibody (antibody, human IgG1, kappa, L234A L235A, N297A, name in Kabat numbering)
heavy: B1 heavy with L61Y, Y106D
chain: B1 chain
light: B1 light
notes: one-arm antibody (one Fab)
B14: CE115HA000 Y100G one-arm antibody (antibody, human IgG1, kappa, L234A L235A, N297A, name in Kabat numbering)
heavy: B1 heavy with L61Y, Y106G
chain: B1 chain
light: B1 light
notes: one-arm antibody (one Fab)
B15: CE115HA000 Y100K one-arm antibody (antibody, human IgG1, kappa, L234A L235A, N297A, name in Kabat numbering)
heavy: B1 heavy with L61Y, Y106K
chain: B1 chain
light: B1 light
notes: one-arm antibody (one Fab)
B16: CE115HA000 Y100L one-arm antibody (antibody, human IgG1, kappa, L234A L235A, N297A, name in Kabat numbering)
heavy: B1 heavy with L61Y, Y106L
chain: B1 chain
light: B1 light
notes: one-arm antibody (one Fab)
B17: CE115HA000 Y100P one-arm antibody (antibody, human IgG1, kappa, L234A L235A, N297A, name in Kabat numbering)
heavy: B1 heavy with L61Y, Y106P
chain: B1 chain
light: B1 light
notes: one-arm antibody (one Fab)
B18: CE115HA000 Y100Q one-arm antibody (antibody, human IgG1, kappa, L234A L235A, N297A, name in Kabat numbering)
heavy: B1 heavy with L61Y, Y106Q
chain: B1 chain
light: B1 light
notes: one-arm antibody (one Fab)
B19: CE115HA000 Y100S one-arm antibody (antibody, human IgG1, kappa, L234A L235A, N297A, name in Kabat numbering)
heavy: B1 heavy with L61Y, Y106S
chain: B1 chain
light: B1 light
notes: one-arm antibody (one Fab)
B20: CE115HA000 Y100V one-arm antibody (antibody, human IgG1, kappa, L234A L235A, N297A, name in Kabat numbering)
heavy: B1 heavy with L61Y, Y106V
chain: B1 chain
light: B1 light
notes: one-arm antibody (one Fab)
B21: CE115HA000 Y100W one-arm antibody (antibody, human IgG1, kappa, L234A L235A, N297A, name in Kabat numbering)
heavy: B1 heavy with L61Y, Y106W
chain: B1 chain
light: B1 light
notes: one-arm antibody (one Fab)
B22: CE115HA000 Y100aA one-arm antibody (antibody, human IgG1, kappa, L234A L235A, N297A, name in Kabat numbering)
heavy: B1 heavy with L61Y, Y107A
chain: B1 chain
light: B1 light
notes: one-arm antibody (one Fab)
B23: CE115HA000 Y100aD one-arm antibody (antibody, human IgG1, kappa, L234A L235A, N297A, name in Kabat numbering)
heavy: B1 heavy with L61Y, Y107D
chain: B1 chain
light: B1 light
notes: one-arm antibody (one Fab)
B24: CE115HA000 Y100aF one-arm antibody (antibody, human IgG1, kappa, L234A L235A, N297A, name in Kabat numbering)
heavy: B1 heavy with L61Y, Y107F
chain: B1 chain
light: B1 light
notes: one-arm antibody (one Fab)
B25: CE115HA000 Y100aG one-arm antibody (antibody, human IgG1, kappa, L234A L235A, N297A, name in Kabat numbering)
heavy: B1 heavy with L61Y, Y107G
chain: B1 chain
light: B1 light
notes: one-arm antibody (one Fab)
B26: CE115HA000 Y100aK one-arm antibody (antibody, human IgG1, kappa, L234A L235A, N297A, name in Kabat numbering)
heavy: B1 heavy with L61Y, Y107K
chain: B1 chain
light: B1 light
notes: one-arm antibody (one Fab)
B27: CE115HA000 Y100aL one-arm antibody (antibody, human IgG1, kappa, L234A L235A, N297A, name in Kabat numbering)
heavy: B1 heavy with L61Y, Y107L
chain: B1 chain
light: B1 light
notes: one-arm antibody (one Fab)
B28: CE115HA000 Y100aQ one-arm antibody (antibody, human IgG1, kappa, L234A L235A, N297A, name in Kabat numbering)
heavy: B1 heavy with L61Y, Y107Q
chain: B1 chain
light: B1 light
notes: one-arm antibody (one Fab)
B29: CE115HA000 Y100aS one-arm antibody (antibody, human IgG1, kappa, L234A L235A, N297A, name in Kabat numbering)
heavy: B1 heavy with L61Y, Y107S
chain: B1 chain
light: B1 light
notes: one-arm antibody (one Fab)
B30: CE115HA000 D101A one-arm antibody (antibody, human IgG1, kappa, L234A L235A, N297A, name in Kabat numbering)
heavy: B1 heavy with L61Y, D110A
chain: B1 chain
light: B1 light
notes: one-arm antibody
B31: CE115HA000 A99D one-arm antibody (antibody, human IgG1, kappa, L234A L235A, N297A, name in Kabat numbering)
heavy: B1 heavy with L61Y, A105D
chain: B1 chain
light: B1 light
notes: one-arm antibody
B32: CE115HA000 A99F one-arm antibody (antibody, human IgG1, kappa, L234A L235A, N297A, name in Kabat numbering)
heavy: B1 heavy with L61Y, A105F
chain: B1 chain
light: B1 light
notes: one-arm antibody

molecular target: T1, CD3 epsilon homodimer protein (UniProt P07766 23-126); experiment: SPR Biacore T200, CD3 epsilon homodimer on CM4 chip, antibody as analyte;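 note: Amine-coupled CD3 epsilon homodimer, run at 25 °C in HBS-EP+ buffer, ratio is bound amount of each single-residue H chain variant over that of the parent antibody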
T1 construct: Immobilized on Sensor chip CM4 by amine coupling; construct not described; also called CD3 (CD3 epsilon)
T1 sequence (P07766 23-126): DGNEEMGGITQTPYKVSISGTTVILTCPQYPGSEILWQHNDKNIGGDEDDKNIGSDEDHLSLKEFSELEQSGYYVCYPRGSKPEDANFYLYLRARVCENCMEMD

Point of comparison: B10, “ratio of amounts bound (Y/X vs CE115HA000)” value 0.27. Against it:
- B1 — the same, 0.27
- B2 — higher, 0.33
- B3 — lower, 0.19
- B4 — lower, 0.18
- B5 — higher, 0.94
- B6 — lower, 0.16
- B7 — lower, 0.24
- B8 — lower, 0.18
- B9 — lower, 0.11
- B11 — lower, 0.18
- B12 — higher, 0.9
- B13 — higher, 0.52
- B14 — higher, 1.07
- B15 — higher, 1.07
- B16 — higher, 0.7
- B17 — higher, 0.48
- B18 — higher, 0.8
- B19 — higher, 0.81
- B20 — higher, 0.6
- B21 — higher, 1.03
- B22 — higher, 0.62
- B23 — higher, 0.31
- B24 — higher, 0.87
- B25 — higher, 1.23
- B26 — higher, 0.9
- B27 — higher, 0.48
- B28 — higher, 0.56
- B29 — higher, 0.64

molecular target: T2, CD3 epsilon homodimer protein (UniProt P07766 23-126); experiment: SPR (Biacore T200), CD3 epsilon homodimer on CM4 chip, one-arm antibody as analyte; ratio to unaltered CE115HA000;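 note: surface plasmon resonance run at 25 °C with HBS-EP+ as running buffer, CD3 epsilon homodimer attached by amine coupling, antibody passed over as analyte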
T2 construct: Construct of the homodimer protein is not described; also called CD3 (CD3 epsilon)
T2 sequence (P07766 23-126): as above

Point of comparison: B30, “KD ratio (KD value of CE115HA000/KD value of the altered form)” value 0.86. Against it:
- B31 — higher, 1.03
- B32 — higher, 1.15
